The test concerns the target His6-Gp54^Bas11 (phage Bas11). The test can be described thus: ITC.

pKd: −log10 of the molar value.

Regarding His6-MBP-CapRel^SJ46 (natural protein), the pKd was 6.10 and the stoichiometry N came out at 1.

The values above are taken from article doi:10.1101/2024.05.10.593582.
